Measurements taken from publication PMC7847548, “Functional Characterization of the γ-Aminobutyric Acid Transporter from Mycobacterium smegmatis MC^2 155 Reveals Sodium-Driven GABA Transport” (Journal of Bacteriology, 2020).

Biological target: the molecule itself
Experiment: SEC-MALS; SEC-MALLS, three-detector method; Superose 6 column in 20 mM HEPES pH 7.0, 100 mM NaCl, 5% glycerol, 0.0102% DMNPG; 30 ul of MsGabP at 3 mg/ml injected; protein-detergent complex

B1: γ-aminobutyric acid (GABA) permease GabP from Mycobacterium smegmatis MC^2 155 (natural protein, UniProt A0R5H8 1-473, looked up)
chain: MLESRSDLSSSDEPRSGLARSLKTRHMTMIAIGGAIGAGLFVGSGAVIKTAGPAAIVSYVVAGALVLCTLRMLGEMVVAKPRTGAFADYARIGIGPWAGFTLGWLYWYYYVIIIAVEAVAGAQILAVWVGLPLWLMAMLLMAALTLTNLISVRWFGEFEFWFSGIKVAAIVSFIVVGLLWVFGVWPGDTNGLTNLVAHGGFAPNGFGSIFGAVVVVIFAFGGAEIVTIAAAESAEPAKSVARATTGVIWRIILFYVGSIFLVVCILPWNDASVLSSPYVAALEKLQIPGAGLIMNIVILTAVLSVLNSSIYTSSRMLRVLASHGDAPQWLVRTNTRGVPTRAILASTVVGWVSVVLAYIAPDSLFLFLVNSCGVVAIFMYVMIGVSELRVRRAIEREDPAKLTLKMWFFPYLPIAVIACFVLVLVAMLFDADQRVQLLASVVSLAVVLLAYALRKRHGQVPATDTKQAARTDE
notes: GABA permease GabP, Mycobacterium smegmatis MC^2 155, gene msmeg_6196, amplified from genomic DNA and cloned NheI/SbfI into pL33 (based on pTTQ18); predicted molecular mass 50.7 kDa; pL33 encodes a C-terminal His tag preceded by an HRV-3C protease site; the tag was cleaved on the column, so residues of the cleavage site and of the cloning sites may remain; also called MsGabP; gene product of …
- stoichiometry N: 2
